Results reported in patent publication US20200397917, “ENGINEERED DNA BINDING PROTEINS” (Encoded Therapeutics, Inc., published 2020).

Columns and labels:
[1] = molecular target: EGR1-based eTF, 6 ZF (SCN1A) (synthetic); assay: cell_activity; endogenous SCN1A, HEK293
Method: (§1) HEK293 cells were cultured per standard methods, and transfected (FuGene HD, Promega) with 3 ug of each tested activator, or an EGFP control. 48h following transfection, cells were collected and RNA was isolated (Qiagen RNeasy Mini kit), and DNase treated. RNA (3 ug) was reverse transcribed using OligoDT primers (Superscript IV, Invitrogen). cDNA samples were analyzed by qPCR using Phusion Polymerase (New England Biolabs) and SYBR Green I: (30s at 98° C., 40×[10 sec at 98° C., 15 sec at 68° C., 15 sec at 72° C.]). Primers against human SCN1A (5′-[…]-3′ (SEQ ID NO: 190); 5′-[…]-3′ (SEQ ID NO: 191)) were used to quantify levels of reporter-driven EGFP transcript, and relative levels of EGFP expression were determined by the delta-delta Ct method with GAPDH as a reference gene (5′-[…]-3′ (SEQ ID NO: 192); 5′-[…]-3′ (SEQ ID NO: 193)). Data are presented as fold changes relative to the control condition. SEQ ID NOs: 6, 7, and 9 are eTFs derived from human EGR1 protein and are engineered to bind to a target site near or at endogenous SCN1A gene, wherein the target site is SEQ ID NOs: 35-37.

EGR1-based eTF, 3 ZF = EGR1-based eTF, 3 ZF (synthetic, UniProt P18146 SEQ:1-543); assay: cell_activity; EGFP reporter
Sequence of EGR1-based eTF, 3 ZF (P18146 other isoform, or with tags, fused parts or gaps): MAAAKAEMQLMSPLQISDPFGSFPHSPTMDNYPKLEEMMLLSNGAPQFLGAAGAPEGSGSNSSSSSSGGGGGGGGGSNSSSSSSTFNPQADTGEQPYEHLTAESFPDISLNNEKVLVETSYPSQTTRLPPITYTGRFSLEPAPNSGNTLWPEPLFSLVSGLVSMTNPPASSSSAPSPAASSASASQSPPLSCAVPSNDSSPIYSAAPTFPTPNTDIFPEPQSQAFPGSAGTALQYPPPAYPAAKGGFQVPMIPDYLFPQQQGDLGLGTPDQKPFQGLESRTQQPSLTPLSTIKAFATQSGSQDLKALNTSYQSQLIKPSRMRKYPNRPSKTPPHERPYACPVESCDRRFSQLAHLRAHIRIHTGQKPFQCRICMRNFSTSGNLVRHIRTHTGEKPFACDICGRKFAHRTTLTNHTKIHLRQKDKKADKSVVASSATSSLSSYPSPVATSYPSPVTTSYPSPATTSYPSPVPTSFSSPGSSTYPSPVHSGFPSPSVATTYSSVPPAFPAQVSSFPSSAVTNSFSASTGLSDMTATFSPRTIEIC
Method: (§2) HEK293 cells were cultured per standard methods, and co-transfected (FuGene HD, Promega) with 1.5 ug of a reporter plasmid consisting of EGFP under the control of a tetracycline-responsive element (TRE) tight promoter, and 1.5 ug of each tested activator, or empty vector control (pUC57). 48h following transfection, cells were imaged using an epifluorescent microscope for GFP expression. The cells were collected and RNA was isolated (Qiagen RNeasy Mini kit), and DNase treated. RNA (3 ug) was reverse transcribed using OligoDT primers (Superscript IV, Invitrogen). cDNA samples were analyzed by qPCR using Phusion Polymerase (New England Biolabs) and SYBR Green I: (30s at 98° C., 40×[10 sec at 98° C., 15 sec at 65° C., 15 sec at 72° C.]). Primers against EGFP (5′-[…]-3′ (SEQ ID NO: 369); 5′-[…]-3′ (SEQ ID NO: 370)) were used to quantify levels of reporter-driven EGFP transcript, and relative levels of EGFP expression were determined by the delta-delta Ct method with GAPDH as a reference gene (5′-[…]-3′ (SEQ ID NO: 192); 5′-[…]-3′ (SEQ ID NO: 193)).
(§3) Data are presented as fold changes relative to the control condition.

[2] = molecular target: EGR3-based eTF, 6 ZF (TRE) (synthetic); assay: cell_activity; versus control SEQ 187
Sequence of EGR3-based eTF, 6 ZF (TRE) (synthetic) (chain, as listed by the source): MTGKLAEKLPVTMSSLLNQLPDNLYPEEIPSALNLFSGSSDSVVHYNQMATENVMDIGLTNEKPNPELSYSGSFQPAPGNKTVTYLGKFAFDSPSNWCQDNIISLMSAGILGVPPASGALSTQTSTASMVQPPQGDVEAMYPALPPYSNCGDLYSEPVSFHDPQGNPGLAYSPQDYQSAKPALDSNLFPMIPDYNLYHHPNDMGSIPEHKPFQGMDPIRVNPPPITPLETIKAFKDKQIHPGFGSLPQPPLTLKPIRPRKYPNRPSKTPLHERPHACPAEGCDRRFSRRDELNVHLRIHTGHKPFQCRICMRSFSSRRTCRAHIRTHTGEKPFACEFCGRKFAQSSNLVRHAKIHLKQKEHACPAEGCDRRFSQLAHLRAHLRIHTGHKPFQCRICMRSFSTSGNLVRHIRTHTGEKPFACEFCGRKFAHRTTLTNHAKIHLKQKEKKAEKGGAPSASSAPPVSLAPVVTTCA
Method: as §2, §3

[3] = molecular target: EGR1-based eTF, duplicated 6 ZF (TRE) (synthetic); assay: cell_activity; EGFP reporter
Sequence of EGR1-based eTF, duplicated 6 ZF (TRE) (synthetic) (chain, as listed by the source): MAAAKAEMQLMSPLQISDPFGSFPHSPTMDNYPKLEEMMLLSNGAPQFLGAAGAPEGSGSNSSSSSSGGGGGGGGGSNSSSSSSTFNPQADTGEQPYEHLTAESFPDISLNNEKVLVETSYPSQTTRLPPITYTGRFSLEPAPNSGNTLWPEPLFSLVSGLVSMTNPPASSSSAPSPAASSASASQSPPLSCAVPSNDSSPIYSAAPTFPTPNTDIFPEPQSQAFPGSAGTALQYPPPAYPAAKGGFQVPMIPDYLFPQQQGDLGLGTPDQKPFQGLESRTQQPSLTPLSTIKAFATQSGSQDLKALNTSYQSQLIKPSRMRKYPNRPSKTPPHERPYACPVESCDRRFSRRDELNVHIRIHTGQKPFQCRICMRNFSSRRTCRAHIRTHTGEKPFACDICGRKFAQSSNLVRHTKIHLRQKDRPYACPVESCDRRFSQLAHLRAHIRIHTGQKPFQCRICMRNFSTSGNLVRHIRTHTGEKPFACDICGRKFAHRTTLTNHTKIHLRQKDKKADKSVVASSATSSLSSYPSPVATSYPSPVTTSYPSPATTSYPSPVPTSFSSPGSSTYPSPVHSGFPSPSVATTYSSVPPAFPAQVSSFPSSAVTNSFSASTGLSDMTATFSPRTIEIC
Method: as §2, §3

[4] = molecular target: EGR1-based eTF, synthetic 6-ZF DBD (synthetic); assay: cell_activity; EGFP reporter
Sequence of EGR1-based eTF, synthetic 6-ZF DBD (synthetic) (chain, as listed by the source): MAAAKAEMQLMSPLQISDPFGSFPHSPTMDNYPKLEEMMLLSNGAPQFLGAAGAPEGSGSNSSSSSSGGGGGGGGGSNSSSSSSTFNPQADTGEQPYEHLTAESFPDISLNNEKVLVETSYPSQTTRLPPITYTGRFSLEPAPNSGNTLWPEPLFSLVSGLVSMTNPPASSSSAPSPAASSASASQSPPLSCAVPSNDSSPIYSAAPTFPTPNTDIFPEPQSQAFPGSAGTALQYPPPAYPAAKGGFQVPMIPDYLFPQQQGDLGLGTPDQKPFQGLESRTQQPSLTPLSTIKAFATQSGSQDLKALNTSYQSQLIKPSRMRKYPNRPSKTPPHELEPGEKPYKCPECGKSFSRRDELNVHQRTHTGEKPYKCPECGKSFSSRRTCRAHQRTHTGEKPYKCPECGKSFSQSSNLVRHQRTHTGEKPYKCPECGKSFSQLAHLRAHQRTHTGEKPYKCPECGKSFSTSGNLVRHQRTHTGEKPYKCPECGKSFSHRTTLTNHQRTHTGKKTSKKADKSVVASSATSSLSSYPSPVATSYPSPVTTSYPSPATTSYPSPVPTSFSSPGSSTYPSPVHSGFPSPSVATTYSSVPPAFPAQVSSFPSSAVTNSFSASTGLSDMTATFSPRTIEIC
Method: as §2, §3

ZF DBD-VP64 = ZF DBD-VP64 (synthetic); assay: cell_activity; EGFP reporter; about 40-fold in FIG. 33B; conditions: tags: NLS
Method: as §2, §3

ZF DBD-CITED2 = ZF DBD-CITED2 (synthetic); assay: cell_activity; versus reporter alone; conditions: tags: NLS; CITED2
Sequence of ZF DBD-CITED2 (synthetic) (chain, as listed by the source): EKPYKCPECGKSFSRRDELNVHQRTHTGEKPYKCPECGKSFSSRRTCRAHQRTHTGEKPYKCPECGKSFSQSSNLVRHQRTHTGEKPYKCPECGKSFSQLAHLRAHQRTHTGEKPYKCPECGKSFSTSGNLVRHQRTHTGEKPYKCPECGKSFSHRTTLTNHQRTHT
Method: as §2, §3

ZF DBD-CITED4 = ZF DBD-CITED4 (synthetic); assay: cell_activity; versus reporter alone; conditions: tags: NLS; CITED4
Method: as §2, §3

[5] = molecular target: EGR1-based eTF, 9 ZF (SCN1A) (synthetic); assay: cell_activity; endogenous SCN1A, HEK293
Sequence of EGR1-based eTF, 9 ZF (SCN1A) (synthetic) (chain, as listed by the source): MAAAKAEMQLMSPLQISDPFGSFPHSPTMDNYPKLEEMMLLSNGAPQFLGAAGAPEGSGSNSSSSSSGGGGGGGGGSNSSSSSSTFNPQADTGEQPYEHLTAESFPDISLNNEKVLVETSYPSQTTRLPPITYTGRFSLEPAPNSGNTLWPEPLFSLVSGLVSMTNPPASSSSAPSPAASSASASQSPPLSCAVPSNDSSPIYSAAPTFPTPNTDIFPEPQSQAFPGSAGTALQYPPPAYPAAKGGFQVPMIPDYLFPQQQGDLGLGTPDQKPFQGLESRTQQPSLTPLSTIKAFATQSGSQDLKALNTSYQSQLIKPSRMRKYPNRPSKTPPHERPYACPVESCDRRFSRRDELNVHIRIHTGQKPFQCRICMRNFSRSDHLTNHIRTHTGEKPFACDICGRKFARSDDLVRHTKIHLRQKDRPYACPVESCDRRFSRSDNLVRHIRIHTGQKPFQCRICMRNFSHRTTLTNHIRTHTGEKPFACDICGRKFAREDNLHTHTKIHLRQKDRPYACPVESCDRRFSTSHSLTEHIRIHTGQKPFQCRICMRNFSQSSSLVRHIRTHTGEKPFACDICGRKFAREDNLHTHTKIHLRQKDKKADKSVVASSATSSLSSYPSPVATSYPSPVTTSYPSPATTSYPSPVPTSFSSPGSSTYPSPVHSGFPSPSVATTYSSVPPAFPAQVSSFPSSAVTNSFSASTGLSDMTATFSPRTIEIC
Method: as §1

Sequence of EGR1-based eTF, 6 ZF (SCN1A) (synthetic) (chain, as listed by the source): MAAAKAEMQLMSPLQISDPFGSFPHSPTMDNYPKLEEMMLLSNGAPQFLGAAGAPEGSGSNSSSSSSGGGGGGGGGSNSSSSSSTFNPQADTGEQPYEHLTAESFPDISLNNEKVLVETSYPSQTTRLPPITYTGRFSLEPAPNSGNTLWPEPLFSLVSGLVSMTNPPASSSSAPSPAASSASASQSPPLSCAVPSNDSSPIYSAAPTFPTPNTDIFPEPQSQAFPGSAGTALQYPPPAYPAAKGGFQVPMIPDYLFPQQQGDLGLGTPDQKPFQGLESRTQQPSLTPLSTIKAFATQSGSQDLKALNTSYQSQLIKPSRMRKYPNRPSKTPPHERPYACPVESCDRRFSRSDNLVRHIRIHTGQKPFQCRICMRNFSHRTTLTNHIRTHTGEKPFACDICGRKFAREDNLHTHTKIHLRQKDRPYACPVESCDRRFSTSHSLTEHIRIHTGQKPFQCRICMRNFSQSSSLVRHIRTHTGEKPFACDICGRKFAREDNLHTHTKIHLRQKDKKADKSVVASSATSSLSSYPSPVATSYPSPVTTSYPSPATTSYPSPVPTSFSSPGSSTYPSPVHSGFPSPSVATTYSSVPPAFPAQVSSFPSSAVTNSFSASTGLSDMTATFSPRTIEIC

B1: SCN1A site 36 (dsDNA)
DNA 1: TAGGTACCATAGAGTGAG
DNA 2: CTCACTCTATGGTACCTA
Question: Which activity [1] does the source give for B1 here?
Answer: ~7 fold SCN1A

B2: TRE reporter 9-nt site (dsDNA)
DNA 1: AGTGATAGA
DNA 2: TCTATCACT
Question: With B2 as the binder, how does the activity (EGR1-based eTF, 3 ZF) read?
Answer: 3 fold EGFP

B3: TRE reporter site (dsDNA)
DNA 1: AGTGATAGAGAACGTATG
DNA 2: CATACGTTCTCTATCACT
Question: For B3, which activity [2] is on record?
Answer: ≥ 5 fold EGFP

Question: What about the activity [3] of the same binder?
Answer: 15 fold EGFP

Question: And the activity [4]?
Answer: 10 fold EGFP

Question: And the activity (ZF DBD-VP64)?
Answer: 70 fold EGFP

Question: What about the activity (ZF DBD-CITED2) of the same binder?
Answer: ~15 fold EGFP

Question: And the activity (ZF DBD-CITED4)?
Answer: ~10 fold EGFP

B4: SCN1A site 37 (dsDNA)
DNA 1: TAGGTACCATAGAGTGAGGCGAGGATG
DNA 2: CATCCTCGCCTCACTCTATGGTACCTA
Question: B4 was tested. Which activity [5] did it give?
Answer: ~20 fold SCN1A
